Article PMC9935853

Target: S. pombe respiratory complex IV (cytochrome c oxidase), affinity purified through a C-terminal twin-strep tag on subunit Cox5 (S. pombe) (UniProt P07657)
Test: pull-down + SEC; membranes solubilised in 1% GDN; StrepTactin column through Cox5-2xstrep, then Superose 6 Increase in 25 mM KH2PO4 pH 8.0, 150 mM KCl, 0.01% GDN; peaks analysed by reduced minus oxidized difference spectra

Chain of UniProt P07657 (P07657 whole entry, looked up, tested part not stated, one chain of several): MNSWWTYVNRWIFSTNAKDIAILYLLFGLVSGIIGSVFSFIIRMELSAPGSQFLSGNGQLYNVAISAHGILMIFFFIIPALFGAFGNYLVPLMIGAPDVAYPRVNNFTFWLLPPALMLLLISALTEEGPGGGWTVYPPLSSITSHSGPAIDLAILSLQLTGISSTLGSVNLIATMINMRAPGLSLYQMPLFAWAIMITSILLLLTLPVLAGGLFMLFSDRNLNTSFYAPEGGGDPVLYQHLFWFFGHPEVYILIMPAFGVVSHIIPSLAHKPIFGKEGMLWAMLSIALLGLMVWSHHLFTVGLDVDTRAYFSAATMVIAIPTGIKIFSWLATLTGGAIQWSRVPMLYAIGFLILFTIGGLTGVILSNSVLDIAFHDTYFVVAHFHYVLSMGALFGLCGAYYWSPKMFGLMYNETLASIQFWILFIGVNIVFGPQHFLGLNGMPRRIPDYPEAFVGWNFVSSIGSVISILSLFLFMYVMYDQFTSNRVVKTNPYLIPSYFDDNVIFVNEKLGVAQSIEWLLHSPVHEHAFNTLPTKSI

stoichiometry N: 2 CIII:CIV
Substance: S. pombe respiratory complex III (cyt. bc1 complex)
